Assay results as given in PMC8159254.

Target: NfRedAm, reductive aminase from Neosartorya fumigata (Neosartorya fumigata)
Assay: SEC-MALS

NfRedAm, reductive aminase from Neosartorya fumigata (enzyme)
stoichiometry N: 2
